Key:
[1] = target: Clostridium difficile toxin B (TcdB) (Clostridium difficile) (UniProt P18177); experiment: ELISA on plates coated with 1 ug/ml TcdB (TxB), OD450
[2] = target: Clostridium difficile toxin A (TcdA) (Clostridium difficile) (UniProt P16154); experiment: cell-based or functional assay
[3] = target: Clostridium difficile toxin A (TcdA) (Clostridium difficile) (UniProt P16154); experiment: ELISA on plates coated with 1 ug/ml TcdA (TxA), OD450

Sequence of Clostridium difficile toxin A (TcdA) (Clostridium difficile) (P16154 whole entry): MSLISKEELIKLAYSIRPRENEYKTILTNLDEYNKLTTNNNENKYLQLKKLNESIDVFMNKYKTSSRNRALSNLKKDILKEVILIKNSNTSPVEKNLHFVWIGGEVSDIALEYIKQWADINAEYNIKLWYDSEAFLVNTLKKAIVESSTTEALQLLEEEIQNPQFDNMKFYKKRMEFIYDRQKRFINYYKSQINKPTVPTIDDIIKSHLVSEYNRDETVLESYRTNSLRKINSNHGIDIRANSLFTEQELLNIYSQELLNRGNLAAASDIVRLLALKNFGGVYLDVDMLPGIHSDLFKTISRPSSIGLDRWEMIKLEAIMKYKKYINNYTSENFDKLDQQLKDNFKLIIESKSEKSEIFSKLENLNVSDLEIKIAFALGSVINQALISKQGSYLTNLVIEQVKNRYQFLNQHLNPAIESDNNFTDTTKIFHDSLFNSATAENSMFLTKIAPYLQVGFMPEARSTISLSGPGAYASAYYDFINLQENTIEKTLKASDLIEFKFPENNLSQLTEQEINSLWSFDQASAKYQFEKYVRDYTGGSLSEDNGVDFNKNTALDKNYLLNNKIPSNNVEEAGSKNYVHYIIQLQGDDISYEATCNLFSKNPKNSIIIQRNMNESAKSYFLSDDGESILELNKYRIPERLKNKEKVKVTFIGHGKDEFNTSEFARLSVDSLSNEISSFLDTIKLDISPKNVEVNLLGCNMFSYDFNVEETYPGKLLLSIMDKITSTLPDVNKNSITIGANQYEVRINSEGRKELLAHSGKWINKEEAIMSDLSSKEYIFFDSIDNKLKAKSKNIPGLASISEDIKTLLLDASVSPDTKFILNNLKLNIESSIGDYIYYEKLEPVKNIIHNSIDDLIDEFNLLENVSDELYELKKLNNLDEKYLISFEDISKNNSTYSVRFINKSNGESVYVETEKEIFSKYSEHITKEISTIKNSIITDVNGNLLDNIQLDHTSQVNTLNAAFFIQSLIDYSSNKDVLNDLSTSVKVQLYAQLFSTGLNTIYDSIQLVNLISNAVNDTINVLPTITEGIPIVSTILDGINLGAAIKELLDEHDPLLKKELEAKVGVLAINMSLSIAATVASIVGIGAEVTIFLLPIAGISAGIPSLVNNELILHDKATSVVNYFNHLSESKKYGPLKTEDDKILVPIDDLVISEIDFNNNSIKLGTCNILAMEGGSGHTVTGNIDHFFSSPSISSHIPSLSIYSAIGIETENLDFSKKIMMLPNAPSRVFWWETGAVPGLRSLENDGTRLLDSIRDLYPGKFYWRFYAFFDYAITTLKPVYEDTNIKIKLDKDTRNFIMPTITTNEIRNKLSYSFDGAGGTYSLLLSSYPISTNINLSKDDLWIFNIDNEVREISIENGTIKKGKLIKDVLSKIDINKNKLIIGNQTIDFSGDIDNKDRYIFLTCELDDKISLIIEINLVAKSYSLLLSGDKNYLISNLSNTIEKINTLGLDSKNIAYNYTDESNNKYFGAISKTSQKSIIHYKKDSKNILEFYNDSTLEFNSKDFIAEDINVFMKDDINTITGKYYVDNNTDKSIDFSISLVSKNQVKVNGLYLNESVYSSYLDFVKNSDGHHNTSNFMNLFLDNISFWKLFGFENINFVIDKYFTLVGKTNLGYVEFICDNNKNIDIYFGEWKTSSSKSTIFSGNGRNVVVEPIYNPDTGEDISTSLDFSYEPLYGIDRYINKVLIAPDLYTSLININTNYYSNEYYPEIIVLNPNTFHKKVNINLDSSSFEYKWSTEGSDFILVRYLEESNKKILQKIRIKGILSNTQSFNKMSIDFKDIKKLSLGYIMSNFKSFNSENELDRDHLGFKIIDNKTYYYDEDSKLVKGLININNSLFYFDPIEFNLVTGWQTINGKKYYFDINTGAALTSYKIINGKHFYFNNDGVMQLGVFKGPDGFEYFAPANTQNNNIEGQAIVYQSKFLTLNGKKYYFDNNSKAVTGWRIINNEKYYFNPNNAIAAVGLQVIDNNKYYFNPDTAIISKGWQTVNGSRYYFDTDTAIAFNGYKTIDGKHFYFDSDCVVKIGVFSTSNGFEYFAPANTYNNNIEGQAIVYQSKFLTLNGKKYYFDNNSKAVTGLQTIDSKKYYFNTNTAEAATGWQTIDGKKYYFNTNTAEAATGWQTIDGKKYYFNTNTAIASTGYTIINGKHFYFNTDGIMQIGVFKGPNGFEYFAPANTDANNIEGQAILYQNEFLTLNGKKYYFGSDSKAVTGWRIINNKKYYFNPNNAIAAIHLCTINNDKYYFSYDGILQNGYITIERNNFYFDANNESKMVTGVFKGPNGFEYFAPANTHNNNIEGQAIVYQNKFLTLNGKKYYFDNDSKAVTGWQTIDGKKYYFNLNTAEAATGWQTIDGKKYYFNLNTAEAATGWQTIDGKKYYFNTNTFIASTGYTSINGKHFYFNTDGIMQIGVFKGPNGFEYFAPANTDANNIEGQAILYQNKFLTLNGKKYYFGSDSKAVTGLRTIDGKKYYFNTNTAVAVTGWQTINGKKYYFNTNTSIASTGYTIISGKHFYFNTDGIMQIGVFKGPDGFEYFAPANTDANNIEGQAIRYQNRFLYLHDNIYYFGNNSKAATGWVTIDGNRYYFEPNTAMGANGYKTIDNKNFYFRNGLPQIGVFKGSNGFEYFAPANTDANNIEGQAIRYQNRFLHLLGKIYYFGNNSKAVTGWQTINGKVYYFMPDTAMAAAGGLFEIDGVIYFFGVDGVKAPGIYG
Sequence of Clostridium difficile toxin B (TcdB) (Clostridium difficile) (P18177 2-2366 limits assumed): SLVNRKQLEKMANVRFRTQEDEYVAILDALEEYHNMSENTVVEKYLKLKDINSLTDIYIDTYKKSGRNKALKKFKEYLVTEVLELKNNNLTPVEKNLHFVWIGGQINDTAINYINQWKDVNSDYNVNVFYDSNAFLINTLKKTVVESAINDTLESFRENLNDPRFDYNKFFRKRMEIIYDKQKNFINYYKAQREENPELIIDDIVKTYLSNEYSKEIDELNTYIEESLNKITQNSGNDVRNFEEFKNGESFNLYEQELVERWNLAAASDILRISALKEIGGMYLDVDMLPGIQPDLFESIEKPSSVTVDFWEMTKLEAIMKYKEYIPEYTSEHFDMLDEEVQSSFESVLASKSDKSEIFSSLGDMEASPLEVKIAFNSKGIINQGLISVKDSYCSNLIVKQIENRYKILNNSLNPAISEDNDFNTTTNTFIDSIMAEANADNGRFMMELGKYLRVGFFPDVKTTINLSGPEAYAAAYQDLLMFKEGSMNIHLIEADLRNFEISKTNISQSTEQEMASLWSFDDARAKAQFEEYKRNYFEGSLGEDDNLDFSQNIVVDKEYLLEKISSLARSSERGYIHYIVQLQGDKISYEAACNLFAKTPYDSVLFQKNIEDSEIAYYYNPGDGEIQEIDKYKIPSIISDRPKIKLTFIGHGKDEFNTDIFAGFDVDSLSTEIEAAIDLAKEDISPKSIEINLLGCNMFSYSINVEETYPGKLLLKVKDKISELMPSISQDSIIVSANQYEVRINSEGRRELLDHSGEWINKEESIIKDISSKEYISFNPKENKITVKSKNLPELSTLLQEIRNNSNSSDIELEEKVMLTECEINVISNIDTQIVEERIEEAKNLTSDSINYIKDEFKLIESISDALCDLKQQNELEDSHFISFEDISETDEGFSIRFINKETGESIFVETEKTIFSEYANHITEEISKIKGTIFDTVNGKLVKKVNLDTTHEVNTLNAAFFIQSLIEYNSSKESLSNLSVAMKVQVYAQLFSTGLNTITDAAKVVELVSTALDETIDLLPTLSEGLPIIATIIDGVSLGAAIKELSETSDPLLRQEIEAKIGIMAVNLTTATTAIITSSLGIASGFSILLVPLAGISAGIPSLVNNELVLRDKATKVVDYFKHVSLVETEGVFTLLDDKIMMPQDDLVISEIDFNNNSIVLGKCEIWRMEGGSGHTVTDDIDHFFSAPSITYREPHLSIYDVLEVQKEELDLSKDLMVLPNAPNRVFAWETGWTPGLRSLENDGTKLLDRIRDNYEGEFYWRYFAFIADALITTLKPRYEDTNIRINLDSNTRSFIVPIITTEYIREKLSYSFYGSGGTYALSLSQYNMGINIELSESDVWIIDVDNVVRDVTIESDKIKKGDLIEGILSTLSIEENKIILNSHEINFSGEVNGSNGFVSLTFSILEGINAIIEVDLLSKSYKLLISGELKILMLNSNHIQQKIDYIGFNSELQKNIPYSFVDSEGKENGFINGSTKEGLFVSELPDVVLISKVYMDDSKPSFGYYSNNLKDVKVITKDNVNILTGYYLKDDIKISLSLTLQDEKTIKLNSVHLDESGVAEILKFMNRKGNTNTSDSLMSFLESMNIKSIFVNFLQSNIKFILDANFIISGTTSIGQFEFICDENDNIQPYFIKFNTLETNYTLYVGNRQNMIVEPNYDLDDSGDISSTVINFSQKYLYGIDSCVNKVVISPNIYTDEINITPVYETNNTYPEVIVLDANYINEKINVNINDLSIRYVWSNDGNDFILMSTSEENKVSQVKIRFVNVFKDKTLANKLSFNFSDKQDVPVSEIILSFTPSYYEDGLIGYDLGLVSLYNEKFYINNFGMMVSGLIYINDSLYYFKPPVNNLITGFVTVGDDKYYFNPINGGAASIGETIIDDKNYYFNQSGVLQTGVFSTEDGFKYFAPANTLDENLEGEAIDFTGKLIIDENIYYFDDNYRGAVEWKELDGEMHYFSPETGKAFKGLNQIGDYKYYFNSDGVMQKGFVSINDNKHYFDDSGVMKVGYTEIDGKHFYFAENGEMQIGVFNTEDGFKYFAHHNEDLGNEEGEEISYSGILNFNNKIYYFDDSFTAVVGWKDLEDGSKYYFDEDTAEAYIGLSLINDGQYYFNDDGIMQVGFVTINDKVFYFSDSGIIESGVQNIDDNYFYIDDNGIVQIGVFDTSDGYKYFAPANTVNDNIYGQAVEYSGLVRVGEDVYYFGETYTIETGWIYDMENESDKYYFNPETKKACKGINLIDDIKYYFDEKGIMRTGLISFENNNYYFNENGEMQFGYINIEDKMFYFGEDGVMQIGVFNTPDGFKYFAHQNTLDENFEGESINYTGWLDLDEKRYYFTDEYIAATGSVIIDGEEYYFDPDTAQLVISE

Substance Merc Ab (antibody) has an EC50 (read off the curve) [1] of 10 ng/mL.

In the case of “Merck anti-TcdA human monoclonal antibody (actoxumab)”, the minimal dose protecting Vero cells from TcdA-induced cell rounding (5 ng/ml TcdA) [2] is reported as > 10 nM and the EC50 (read off the curve) [3] is reported as 2 ng/mL.

Reference: patent US20180319872A1
